Measurements from patent US20210221874A1 (TRUSTEES OF TUFTS COLLEGE, published 2021).

B1: JKH-D12 (VHH)
VHH: QVQLVETGGGLVQAGGTLRLSCAASGRTFTSYYIGWFRQEPGKEREFVASIGWTDDNTYYADSVKGRFTISRDNAETTAYLQMSGLKPEDTAVYYCAADYGSGIRAWYNWIYWGQGTQVTVSS
B2: JKO-H2 (VHH)
VHH: QVQLAESGGGLVQAGGSLRLSCAASGRTFSSYVMGWFRQAPGKEREFVAAISRNGGKTYYADSVKGRFTISRDGTENTVYLQMNSLKPEDTAVYYCAAAVAASAEFVTARSNFYEYWGQGTQVTVSS
notes: also called JKO-H12
B3: JKO-B8 (VHH)
VHH: QLQLAESGGGLVQPGGSLRLSCTASGIIFDYYSVDWYRQAPGKERELVATITGDGSPNYADSVKGRFTISRDNAKKTVYLQMNGLKPEETAVYYCHAKRTIGTKSEYWGQGTQVTVSS
B4: JKO-A4 (VHH)
VHH: QVQLAESGGGSVQPGGSLRLSCAASGFTFSSYTMSWVRQAPGKGIEWVSDINGGGDRTDYADSVKGRFTISRDNARNTLYLQMNSLQPEDTAVYYCAKDLSYVSGTYFANDWGQGTQVTVSS
B5: JKM-A6 (VHH)
VHH: QLQLAETGGGLVQPGGSLRLSCAASGATLDTYIITWFRQAPGKEREAVSCINRSGSTTYSDSVKGRFTISRDNAQKTVYLQMNSLNPEDTAIYYCAADASYRTCGGSWWNWAYWGQGTQVTVSS
B6: JKH-A4 (VHH)
VHH: QVQLAETGGGLVQAGGSLRLSCSASGLTFGNYAMGWFRQAPGKEREFVASISRSGSNTWYAEPLKGRFAISRDNDKNALYLQMNSLKPEDTAVYYCAGGSYNSDWWNYMYWGQGTQVTVSS
B7: JKH-C7 (VHH)
VHH: VQLVESGGGGLVQAGGSLRLSCAASGRTFSGYAMGWFRQAPGKEREFVADISWSGHNTYYGDSVKGRFTISRDTAKNTVYLQMNSLKPEDTAVYYCAAEGARTHLSDSYYFPGLWAEPPVGYWGQGTQVTVSS
notes: also called JHK-C7
B8: JKO-E12 (VHH)
VHH: QVQLAETGGGLVQAGGSLRLSCLASRMSFSRRPMAWYRQAPGKQRERVATISSFGDTTNYTDSVEGRFTISRDNAKNTMYLQMNSLKPDDTAVYYCNTLLATYAWGQGTQVTVSS
B9: JHD-B6 (VHH)
VHH: QVQLVESGGGLVQPGGSLRLSCAASGSSFSRYAMRWYRQAPGKQRELVANINSRGTSNYADSVKGRFTISRDNAKNTVYLQMNSLKPEDTAVYYCNAEWLGRSEPSWGQGTQVTVSS
B10: JIJ-D3 (VHH)
VHH: QVQLVETGGLVQPGGSLRLSCAASGLTFSSTAMAWFRQAPGKEREFVARISGAGITIYYSDSVKDRFTISRNNVENTVYLQMNSLKTEDTAVYYCAARRNTYTSDYNIPARYPYWGQGTQVTVSS
B11: JIJ-B8 (VHH)
VHH: SGGGLVQPGGSLSVSCAASGSIARPGAMAWYRQAPGKERELVASITPGGLTNYADSVTGRFTISRDNAKRTVYLQMNSLQPEDTAVYYCHARIIPLGLGSEYRDHWGQGTQVTVSS
B12: JIK-B8 (VHH)
VHH: SGGGLVQPGGSLGLSCVVASERSINNYGMGWYRQAPGKQRELVAQISSGGTTNYADSVEGRFTISRDNVKKMVHLQVNSLKPEDTAVYYCNSLLRTFSWGQGTQVTVSS
B13: JIJ-A12 (VHH)
VHH: QVQLVESGGGLVQPGGSLRLSCAASGIIFSIYTMGWYRQAPGKQRELVAAIPSGPSANATDSVGGRFTITRDNAENTVYLQMNDLKPEDTAVYYCNARRGPGIKNYWGQGTQVTVSS
B14: JIJ-E9 (VHH)
VHH: QVQLVETGGLVQPGGSLRLSCAASRSTTATIYSMNWYRQAPGKQRELVAGMTSDGQTNYATSVKGRFTISRDNAKNTVYLLMNSLKLEDTAVYYCYVKPWRLQGWDYWGQGTQVTVSS
B15: JIK-B10 (VHH)
VHH: QVQLVETGGGLVQPGGSLRLSCAASGFTFSSYRMSWYRQAAGKERDVVATITANGVPTGYADSVMGRFTISRDNAKNTVYLEMNSLNPEDTAVYYCNAPRLHTSVGYWGQGTQVTVSS

The binders below were run against T1, anthrax protective antigen, wild type PA83 (Bacillus anthracis, UniProt P13423 30-764) (assay: SPR (Biacore 3000)).
T1 construct: mature
T1 sequence (P13423 30-764): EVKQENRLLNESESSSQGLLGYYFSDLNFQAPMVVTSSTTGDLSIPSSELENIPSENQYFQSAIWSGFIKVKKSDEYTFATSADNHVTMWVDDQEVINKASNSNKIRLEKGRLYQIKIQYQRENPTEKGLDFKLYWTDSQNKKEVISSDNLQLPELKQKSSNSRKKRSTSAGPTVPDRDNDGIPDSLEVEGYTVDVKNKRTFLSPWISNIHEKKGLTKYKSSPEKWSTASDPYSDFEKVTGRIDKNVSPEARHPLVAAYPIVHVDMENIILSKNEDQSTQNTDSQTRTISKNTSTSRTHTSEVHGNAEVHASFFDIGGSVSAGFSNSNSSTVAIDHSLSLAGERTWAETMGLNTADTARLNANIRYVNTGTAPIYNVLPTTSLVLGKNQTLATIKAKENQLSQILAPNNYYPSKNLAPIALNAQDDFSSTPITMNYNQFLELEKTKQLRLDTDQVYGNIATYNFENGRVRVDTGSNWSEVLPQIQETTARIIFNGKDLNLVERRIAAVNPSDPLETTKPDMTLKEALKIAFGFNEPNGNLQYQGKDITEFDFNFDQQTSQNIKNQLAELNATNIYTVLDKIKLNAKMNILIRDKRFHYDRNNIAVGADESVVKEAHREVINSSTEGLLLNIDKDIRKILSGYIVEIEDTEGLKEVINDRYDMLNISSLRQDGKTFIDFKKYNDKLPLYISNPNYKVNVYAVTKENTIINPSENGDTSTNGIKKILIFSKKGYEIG

Binder	Kd [nM]
B1	1
B2	4
B3	200
B4	10
B5	20
B6	9
B7	7
B8	0.2

The binders below were run against T1, anthrax protective antigen, wild type … (assay: SPR (ProteOn XPR36)).

Binder	Kd [nM]
B9	66
B10	18
B11	8
B12	0.13
B13	45
B14	12
B15	9

What follows are binders tested against T1, anthrax protective antigen, wild type … (assay: dilution ELISA on PA-coated plates).

Binder	EC50 [nM]
B9	0.5
B1	0.3
B2	0.6
B3	> 100
B10	0.3
B4	0.3
B11	0.4
B5	0.3
B12	0.2
B6	0.5
B13	2
B7	2
B8	0.1
B14	0.4
B15	0.2

These binders were tested against T1, anthrax protective antigen, wild type … (assay: cell-based or functional assay).

Binder	IC50 (anthrax lethal toxin neutralization, RAW264.7 macrophages) [nM]
B9	10
B10	9
B12	1
B7	5
B8	0.2
B14	30
B15	8

The binders below were run against T1, anthrax protective antigen, wild type … (assay: not given).

Binder	EC50 (read off the curve) [nM]
B7	~2

Target: T1, anthrax protective antigen, wild type …
Test: cell-based or functional assay
Remark: another data set of the same source

Binder	IC50 (read off the curve) [nM]
B12	~1
B7	~4
